Publication PMC5056442

Target: BamE (E. coli) (UniProt P0A937)
Assay: SEC + native MS; purified BamABCDE; SDS-PAGE, gel filtration (Superdex200 10/300 GL, TBS with 0.05% DDM, 21 °C) and non-covalent nanoESI-MS named together for the molar ratio

Chain of UniProt P0A937 (P0A937 20-113): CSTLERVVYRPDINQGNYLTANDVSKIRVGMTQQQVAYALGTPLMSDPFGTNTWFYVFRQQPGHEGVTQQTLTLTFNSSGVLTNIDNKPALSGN

With “BamB (from UniProt P77774 20-392) (natural protein)” as the substance, how does the stoichiometry N read?
Its stoichiometry N is 1 molar ratio.
